From article PMC7480108

What was measured:
[1] = molecular target: GST-FGD1^18-335 (UniProt P52734); test: pull-down; GST-tagged FGD1 fragment (2 µM) immobilised on Glutathione Sepharose 4B beads, incubated with MDA-MB-231 cell lysates (untransfected or transfected with TKS5^GFP constructs) 2 h at 4°C; 50 mM Tris-HCl pH 7.5, 150 mM NaCl, 0.5 mM EDTA, 10 mM MgCl2, 10% glycerol, 0.7% NP-40; immunoblotting
[2] = molecular target: endogenous FGD1 (faciogenital dysplasia protein 1) (UniProt P98174); test: co-immunoprecipitation (anti-GFP nanobody, GFP-Trap) with FGD1 immunoblot; conditions: lysates of MDA-MB-231 cells; 1% of total lysate loaded as input; parent: 100
[3] = molecular target: TKS5^GFPW1092A (human); test: co-IP; GFP-Trap (anti-GFP nanobody beads) from NP-40 lysates of MDA-MB-231 cells expressing GFP-tagged constructs, 1 h 4°C; immunoblotting of bound proteins

UniProt P52734, sequence (P52734 18-335): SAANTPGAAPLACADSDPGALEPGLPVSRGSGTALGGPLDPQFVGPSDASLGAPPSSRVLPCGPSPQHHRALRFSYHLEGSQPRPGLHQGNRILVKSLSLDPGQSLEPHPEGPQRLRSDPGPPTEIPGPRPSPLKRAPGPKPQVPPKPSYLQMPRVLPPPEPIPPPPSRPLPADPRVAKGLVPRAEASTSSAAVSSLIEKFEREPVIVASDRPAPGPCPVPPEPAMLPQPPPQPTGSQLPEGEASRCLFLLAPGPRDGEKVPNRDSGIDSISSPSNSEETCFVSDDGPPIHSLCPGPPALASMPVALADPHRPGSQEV
TKS5^GFP, sequence (Q5TCZ1 whole entry): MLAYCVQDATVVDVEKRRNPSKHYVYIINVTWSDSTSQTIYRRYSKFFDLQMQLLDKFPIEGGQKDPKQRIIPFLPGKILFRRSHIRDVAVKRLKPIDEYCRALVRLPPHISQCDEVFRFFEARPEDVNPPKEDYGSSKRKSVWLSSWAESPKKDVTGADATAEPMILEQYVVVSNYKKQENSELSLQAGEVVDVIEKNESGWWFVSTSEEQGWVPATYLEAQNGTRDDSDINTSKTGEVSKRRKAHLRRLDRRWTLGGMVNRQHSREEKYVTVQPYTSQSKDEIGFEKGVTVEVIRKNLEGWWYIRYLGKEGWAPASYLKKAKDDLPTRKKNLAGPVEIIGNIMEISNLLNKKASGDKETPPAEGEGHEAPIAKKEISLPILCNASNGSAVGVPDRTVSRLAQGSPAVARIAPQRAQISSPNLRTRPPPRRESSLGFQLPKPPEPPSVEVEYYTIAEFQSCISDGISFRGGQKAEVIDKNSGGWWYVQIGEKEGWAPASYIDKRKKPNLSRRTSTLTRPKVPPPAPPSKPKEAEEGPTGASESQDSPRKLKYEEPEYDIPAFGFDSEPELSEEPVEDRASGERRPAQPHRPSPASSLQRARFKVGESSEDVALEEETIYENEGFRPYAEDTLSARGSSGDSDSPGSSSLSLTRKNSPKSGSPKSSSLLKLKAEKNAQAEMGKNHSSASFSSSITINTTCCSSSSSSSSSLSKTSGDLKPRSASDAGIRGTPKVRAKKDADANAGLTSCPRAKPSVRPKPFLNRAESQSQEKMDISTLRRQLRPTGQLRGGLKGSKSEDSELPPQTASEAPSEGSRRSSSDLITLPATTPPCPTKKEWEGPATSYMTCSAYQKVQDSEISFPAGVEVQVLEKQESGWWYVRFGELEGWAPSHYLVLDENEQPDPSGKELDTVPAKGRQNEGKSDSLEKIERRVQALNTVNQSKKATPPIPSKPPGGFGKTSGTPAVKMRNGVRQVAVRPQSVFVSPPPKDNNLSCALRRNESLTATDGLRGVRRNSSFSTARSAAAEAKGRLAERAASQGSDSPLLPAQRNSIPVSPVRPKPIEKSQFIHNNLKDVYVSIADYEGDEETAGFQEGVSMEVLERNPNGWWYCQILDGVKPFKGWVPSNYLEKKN

percent of the input pulled down (% of the input) [1] | Molecule | also measured
1.35 | TKS5^GFP (natural protein) | 
 | TKS5^GFP W861A | percent of parent (% of wild-type TKS5) [2]: 91
2.85 | TKS5_324-1118^GFP (domain or fragment) | 
 | endogenous FGD1 (faciogenital dysplasia protein 1) (natural protein) MHGHRAPGGAGPSEPEHPATNPPGAAPPACADSDPGASEPGLLARRGSGSALGGPLDPQFVGPSDTSLGAAPGHRVLPCGPSPQHHRALRFSYHLEGSQPRPGLHQGNRILVKSLSLDPGQSLEPHPEGPQRLRSDPGPPTETPSQRPSPLKRAPGPKPQVPPKPSYLQMPRMPPPLEPIPPPPSRPLPADPRVAKGLAPRAEASPSSAAVSSLIEKFEREPVIVASDRPVPGPSPGPPEPVMLPQPTSQPPVPQLPEGEASRCLFLLAPGPRDGEKVPNRDSGIDSISSPSNSEETCFVSDDGPPSHSLCPGPPALASVPVALADPHRPGSQEVDSDLEEEDDEEEEEEKDREIPVPLMERQESVELTVQQKVFHIANELLQTEKAYVSRLHLLDQVFCARLLEEARNRSSFPADVVHGIFSNICSIYCFHQQFLLPELEKRMEEWDRYPRIGDILQKLAPFLKMYGEYVKNFDRAVELVNTWTERSTQFKVIIHEVQKEEACGNLTLQHHMLEPVQRIPRYELLLKDYLLKLPHGSPDSKDAQKSLELIATAAEHSNAAIRKMERMHKLLKVYELLGGEEDIVSPTKELIKEGHILKLSAKNGTTQDRYLILFNDRLLYCVPRLRLLGQKFSVRARIDVDGMELKESSNLNLPRTFLVSGKQRSLELQARTEEEKKDWVQAINSTLLKHEQTLETFKLLNSTNREDEDTPPNSPNVDLGKRAPTPIREKEVTMCMRCQEPFNSITKRRHHCKACGHVVCGKCSEFRARLVYDNNRSNRVCTDCYVALHGVPGSSPACSQHTPQRRRSILEKQASVAAENSVICSFLHYMEKGGKGWHKAWFVVPENEPLVLYIYGAPQDVKAQRSLPLIGFEVGPPEAGERPDRRHVFKITQSHLSWYFSPETEELQRRWMAVLGRAGRGDTFCPGPTLSEDREMEEAPVAALGATAEPPESPQTRDKT | percent of the wild-type TKS5 binding capacity (% of wild type) [3]: 10
